This is an account of results in patent US20070237776A1 (Regeneron, published 2007).

Test [1] has as its target T1, human interleukin-18 receptor alpha (hIL-18Rα) on cells (human, UniProt Q13478 19-541).
T1 sequence: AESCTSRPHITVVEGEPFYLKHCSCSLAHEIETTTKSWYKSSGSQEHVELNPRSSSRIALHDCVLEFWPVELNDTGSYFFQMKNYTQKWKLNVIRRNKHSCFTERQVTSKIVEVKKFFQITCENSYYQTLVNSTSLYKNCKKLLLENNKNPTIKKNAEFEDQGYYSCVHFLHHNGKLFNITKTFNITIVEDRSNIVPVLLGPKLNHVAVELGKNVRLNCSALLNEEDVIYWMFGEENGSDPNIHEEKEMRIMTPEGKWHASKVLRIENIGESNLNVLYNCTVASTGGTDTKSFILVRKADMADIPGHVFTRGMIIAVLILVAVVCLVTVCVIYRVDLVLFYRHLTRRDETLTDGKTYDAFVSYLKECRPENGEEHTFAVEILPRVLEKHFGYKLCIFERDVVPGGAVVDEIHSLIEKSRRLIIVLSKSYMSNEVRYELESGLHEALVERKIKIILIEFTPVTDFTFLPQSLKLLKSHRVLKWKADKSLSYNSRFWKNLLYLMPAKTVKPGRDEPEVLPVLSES
Put plainly: cell-based or functional assay.

Test [2] addresses T2, hIL-18Rα-hFc fusion protein (human, UniProt Q13478 19-329, limits assumed).
T2 construct: also called IL-18R1-hFc; not shown: human Fc
T2 sequence: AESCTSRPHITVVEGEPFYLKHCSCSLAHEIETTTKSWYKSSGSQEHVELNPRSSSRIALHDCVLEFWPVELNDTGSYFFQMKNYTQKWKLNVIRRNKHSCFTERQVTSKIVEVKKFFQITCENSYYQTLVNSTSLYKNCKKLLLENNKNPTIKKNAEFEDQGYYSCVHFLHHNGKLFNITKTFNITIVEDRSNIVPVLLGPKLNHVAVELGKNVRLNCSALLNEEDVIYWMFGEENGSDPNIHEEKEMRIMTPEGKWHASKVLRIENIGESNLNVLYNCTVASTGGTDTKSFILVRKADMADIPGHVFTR
Put plainly: ELISA solution affinity: antibody premixed with serial dilutions of hIL-18Rα-hFc, free antibody caught on hIL-18Rα-hFc-coated plate. Here is the method: Binding affinity of the antibodies to antigen were also measured using a immunoassay. Antibodies were characterize from hybridoma conditioned medium or as purified protein. Protein was purified after hybridoma cells were grown in low IgG medium and affinity purified using Protein G. IC₅₀ of antigen binding was determined with an ELISA-based assay. Briefly, constant amounts of antibody at different levels, either in hybridoma conditioned medium or purified, were premixed with serial dilutions of antigen protein, hIL-18Rα-hFc, ranging from 0 to 10 mg/ml, and incubated for two hours at room temperature to reach pseudo-binding equilibrium between the antibody and antigen. These solutions were then transferred to 96-well hIL-18Rα-hFc pre-coated plates (solid phase) to allow the free-antibody in the mixtures to bind to plate-coated hIL-18Rα-hFc. […] After washing off excess antibody in solution, the plate-bound antibodies were detected with an HRP-conjugated goat anti-mouse IgG polyclonal antibody reagent and developed using either colorimetric or chemiluminescent substrates. The dependency of the signals on the concentrations of antigen in solution was analyzed with a 4 parameter fit analysis using Prism™ software from Graph Pad™ and reported as IC₅₀ that render 50% reduction of antibody binding to plate-coated antigen.
On the technique in general: ELISA stands for enzyme-linked immunosorbent assay.

Test [3] addresses T2, hIL-18Rα-hFc fusion protein. Kind of test: SPR (BIAcore), antibody from conditioned medium captured on anti-mouse IgG, hIL-18Rα-hFc in solution. Here is the method:
The KD of the antigen binding to the selected antibodies described above were determined by surface kinetics on a real-time biosensor surface plasmon resonance assay (BIAcore™). The antibody derived from hybridoma was captured on an anti-mouse IgG surface and exposed to various concentrations of hIL-18Rα-hFc fusion protein. Kinetic analysis using evaluation software was performed to obtain the association and dissociation rate constants.
Background: In SPR one partner is held on a chip, and binding of the other changes the refractive index at the surface.

The target in test [4] is T3, monomeric receptor, hIL18Rα-hIL-18Rb-myc-myc-his (human, UniProt O95256 20-356, limits assumed).
T3 construct: Construct known only by its name; also called monomeric antigen; monomeric hIL-18Rα; not shown: myc-myc-his tag
T3 sequence: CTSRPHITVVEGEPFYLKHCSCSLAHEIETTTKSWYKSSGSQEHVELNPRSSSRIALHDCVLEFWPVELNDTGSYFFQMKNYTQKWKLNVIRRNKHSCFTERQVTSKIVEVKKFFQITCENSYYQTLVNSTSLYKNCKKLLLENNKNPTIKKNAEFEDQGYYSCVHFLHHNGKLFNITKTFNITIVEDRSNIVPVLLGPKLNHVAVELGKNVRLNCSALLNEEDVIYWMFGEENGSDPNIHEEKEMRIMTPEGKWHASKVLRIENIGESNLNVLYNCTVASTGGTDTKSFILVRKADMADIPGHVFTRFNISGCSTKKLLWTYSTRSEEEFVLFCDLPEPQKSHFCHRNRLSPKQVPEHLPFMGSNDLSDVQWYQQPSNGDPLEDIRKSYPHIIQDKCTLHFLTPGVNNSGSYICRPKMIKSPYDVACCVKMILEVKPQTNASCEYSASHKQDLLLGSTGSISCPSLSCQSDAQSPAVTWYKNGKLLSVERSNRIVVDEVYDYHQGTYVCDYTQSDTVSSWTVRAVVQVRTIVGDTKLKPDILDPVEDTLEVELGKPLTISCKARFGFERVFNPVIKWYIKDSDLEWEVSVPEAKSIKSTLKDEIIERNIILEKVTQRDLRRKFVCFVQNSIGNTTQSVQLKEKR
Kind of test: SPR (BIAcore), mAb from subclone hybridoma supernatant captured on anti-mouse IgG, monomeric receptor 50-12.5 nM, 1:1 model. Here is the method: (§1) Both mouse IgG1 and human IgG4 versions of the derived antibody were measured to determine KD for monomeric antigen using BIAcore™ (Table 2). Binding affinity of monomeric receptor was measured by capturing mAb from subclone hybridoma supernatant and CHO conditioned media over amine coupled anti-mouse IgG and anti-human IgG. […] Data were processed and analyzed using a 1:1 binding model and KD values were calculated.

For test [5], the target named is T3, monomeric receptor, …. Put plainly: SPR (BIAcore), mAb from CHO conditioned medium captured on anti-human IgG, monomeric receptor 50-12.5 nM, 1:1 model. Here is the method: as §1

B1: VH1F9 (antibody, V domains shown)
VH: QVQLVQSGAEVKKPGASVRVSCKASGYTFTSYDINWVRQATGQGLEYMGWMNPNSGNTGYAQKFQGRVSLTRDTSISTAYMDLNSLRSEDTAVYYCTTPGDKWNYEYFQFWGQGTLVTVSS
VL: DIQMTQSPSSVSASVGDRVTITCRASQHISIWLAWYQQKPGKAPKLLILSASSLLSGVPSRFSGSGSGTDFALTVSSLQPEDFATYYCQQANSFPSFGPGTKVEIK
notes: Hybridoma-derived chimeric IgG: human variable regions, mouse constant regions
With B1, in test [1], the “KG-1 Bioassay (IC50 nM)” value turned out to be 0.085 nM and the “Luciferase Bioassay (IC50 nM)” value worked out at 0.653 nM. In addition, inhibition in test [2] was half-maximal at 0.026 nM (IC50). Moreover, the Kd – broadly, the constant that tells how readily two partners part at equilibrium – in test [3] was found to be 0.135 nM.

B2: VH1F9-18, mouse IgG1 (antibody, V domains shown)
VH: B1 VH
VL: B1 VL
notes: Chimeric: human variable, mouse IgG1 constant; from subclone hybridoma supernatant; subclone -18 of VH1F9
For the molecule B2, binding in test [4] was put at a Kd of 6.81 nM.

B3: VH1F9-18, human IgG4 (antibody, V domains shown)
VH: B1 VH
VL: B1 VL
notes: Fully human IgG4 version from CHO conditioned medium
Take B3: the Kd in test [5] is 6 nM.
